Substrate in this series: O=c1ccn([C@H]2C[C@H](O)[C@@H](COP(=O)(O)OP(=O)(O)OP(=O)(O)O)O2)c(=O)[nH]1
In words: purified protein. Format: biochemical, Arabidopsis thaliana. Particulars: pH 7.6, 25 °C, 5 mM MgCl2, 100 mM KCl, 0.25 mM bicine, 50 nM enzyme.

B1: Arabidopsis dUTPase (Arabidopsis thaliana) (protein)
chain: MACVNEPSPKLQKLDRNGIHGDSSPSPFFKVKKLSEKAVIPTRGSPLSAGYDLSSAVDSKVPARGKALIPTDLSIAVPEGTYARIAPRSGLAWKHSIDVGAGVIDADYRGPVGVILFNHSDADFEVKFGDRIAQLIIEKIVTPDVVEVDDLDETVRGDGGFGSTGV
notes: full length, 166 residues; His tag removed by thrombin, extra Gly-Ser-His at N-terminus; expressed in E. coli JM103 (DE3); homotrimer
What is called Km is the substrate concentration at which the rate is half of its maximum. For B1, the Km turned out to be 0.4 ± 0.1 µM.

The record behind these values is paper PMC4678481, “Structural insights into the mechanism defining substrate affinity in Arabidopsis thaliana dUTPase: the role of tryptophan 93 in ligand orientation” (BMC Research Notes, 2015).
